This is an account of results in US20080299228A1, “TOPICAL COMPOSITIONS COMPRISING A MACROMOLECULE AND METHODS OF USING SAME” (priority 2007, published 2008).

No end group written: not given here. *: point of attachment. 125I = [125I]*

The nature of series [1]: Effect of process parameters and excipients on rehydration time of lyophilized HEC gel. The conditions noted are these: additive screening. The series is classed as physicochemical. Details: key: ✓: Additives that had a positive effect (i.e., reduction in hydration time) have a check mark beside them. The procedure:
Preliminary studies on rehydration time used water (see Table 13). Rehydration in 12% hexylene glycol, a humectant, decreased the rehydration time for a HEC 250HX lyophilized cake down to 20-30 minutes. Further experiments used 12% hexylene glycol for rehydration.
The freezing rate for lyophilized products can affect the cake structure. Freezing at −20° C. was the standard procedure used in this study. To investigate the effect of a faster freezing rate, samples were frozen in a dry ice/ethanol bath at −48° C.
Samples from both freezing methods were lyophilized. During the lyophilization process, all samples from the ice bath freezing collapsed into dense cakes. During rehydration, the ice bath frozen cakes were much slower to form gels. It took at least 1 hour to rehydrate the ice bath frozen cakes.
HEC 250HX gels at 1.125 and 2.25% polymer were prepared. The latter gel was more viscous than the former due to the higher polymer concentration. After freeze drying, cakes from both products were rehydrated so that the final polymer concentration was 1.125%. The lyophilized gels prepared with the more concentrated polymer solution required approximately 15-20 minutes longer to rehydrate than the more dilute formulation. The higher density of the concentrated polymer cake was likely a factor in the longer rehydration time.
Additives with a wide range of physical properties were screened to evaluate their effect on rehydration time for a lyophilized 1.125% HEC 250HX gel. The chemical classes included in this screen were polymers, surfactants, amino acids, colloidal powders, and salts. All additives were crystalline at room temperature. The use of amorphous excipients could lead to melting/cake collapse at elevated temperature. When evaluating chemical classes, priority was given to those included in the IIG for topicals. Excipients shown to be physically and/or chemically incompatible with PTH(1-34) were excluded (4). Salts containing polyvalent anions were also excluded to avoid the potential for precipitating PTH(1-34).
“Powdered” solid formulations were also evaluated. […]

Series [2] can be described thus: Percutaneous absorption of 125I macromolecules, in vitro cadaver skin finite dose technique. Conditions: for Total Absorption / Dermis / Epidermis / Stratum Corneum / Surface Wash: 48 hours. The series is classed as in vitro ADME, human. The source says: Radiolabeled Bovine Serum Albumin was acquired from American Radiolabeled Chemicals (St. Louis, Mo.) as ARI 0112 Albumin (bovine serum) [I^125] with a specific activity of 204 Ci/mmol (Lot number 080372). Radiolabeled Epidermal Growth Factor (murine) and Somatastatin were acquired from Perkin Elmer Life and Analytical Sciences (Boston, Mass.) as [^125I]-Epidermal Growth Factor (murine) and [^125I]Tyr11-Somatostatin 14 with specific activities of 2200 Ci/mmol (Lot number CC41180) and 2200 Ci/mmol (Lot number JX32880), respectively. Each stock isotope was either provided as, or reconstituted into 12.5 μL of distilled de-ionized water. This volume was added to 500 μL of the provided test formulations and mixed for uniformity. Replicate assessments were made from each final mixture to determine specific activity.
Skin Preparation. Percutaneous absorption was measured using the in vitro cadaver skin finite dose technique. Ex vivo human trunk skin without obvious signs of skin disease, obtained within 24-48 hours of death, was used in this study. Skin was dermatomed, prepared for cryopreservation, sealed in a water impermeable plastic bag, and stored at <−70° C. until the day of the experiment. Prior to use, it was thawed in ˜37° C. water, then rinsed in water to remove any adherent blood or other material from the surface.
Skin from a single donor was cut into multiple smaller sections large enough to fit on static 1.0 cm^2 Franz diffusion cells (see FIG. 6). The dermal chamber was filled to capacity with a reservoir solution of phosphate-buffered isotonic saline (PBS), pH 7.4±0.1, and the epidermal cell (chimney) left open to ambient laboratory conditions. All cells were mounted in a diffusion apparatus in which the dermal bathing solution was stirred magnetically at approximately 600 RPM and the skin surface temperature maintained at 32.0° C.±1.0° C.
To assure the integrity of each skin section, its permeability to tritiated water was determined before application of the test products. Following a brief (0.5-1 hour) equilibrium period, ^3H2O (NEN, Boston, Mass., sp. Act. ˜0.5 μCi/mL) was layered across the top of the skin by dropper so that the entire exposed surface was covered (approximately 250-500 μL). After 5 minutes the ^3H2O aqueous layer was removed. At 30 minutes the receptor solution was collected and analyzed for radioactive content by liquid scintillation counting. Skin specimens in which absorption of ^3H2O was less than 1.56 μL-equ/cm^2 were considered acceptable.
Dosing and Sample Collection. Just prior to dosing, the reservoir solution was replaced with a fresh solution of 1× PBS and a pre-dose sample taken for analysis. The chimney was removed from the Franz Cell to allow full access to the epidermal surface of the skin. All formulations were then applied to the skin sections using a positive displacement pipette set to deliver 5 μL formulation/cm^2. The dose was spread across the surface with the Teflon® tip of the pipette. Five to ten minutes after application, the chimney portion of the Franz Cell was replaced. At pre-selected times after dosing (1, 2, 4, 8, 12, 24, 32, and 48 hours) the reservoir solution was removed in its entirety, replaced with fresh reservoir solution, and a predetermined volume aliquot saved for subsequent analysis.
After the last sample was collected, the surfaces were washed twice (0.5 mL volume each) with 1× PBS to collect un-absorbed formulation from the surface of the skin. Following the wash, the skin was tape stripped a sufficient number of times to collect the stratum corneum. The skin was then removed from the chamber and split into epidermis and dermis. All skin sections were dissolved overnight in Soluene-350® (Perkin Elmer).
Analytical Methods. Analysis of all formulations was by liquid scintillation counting. One-milliliter volumes of each receptor solution and each surface wash received 5-6 mL scintillation fluid or as needed. […]

Series [3] is classed as physicochemical. The protocol:
All excipients for the room temperature gel formulations met USP/NF monographs. Reagents for analysis were HPLC and/or ACS grade and nitrogen was ultra high purity (>99.999%). PTH(1-34) was supplied by Neo-MPS. Reverse phase HPLC RP-HPLC analysis of reconstituted gels/solutions was performed according to standard methods.
At each time point, two assays were performed on each formulation.
Before preparing larger batches for longer term stability studies, three pilot batches were prepared on the 10 g scale to assess the solid product's stability. The batches included either PTH(1-34) plus HEC, PTH(1-34) plus HEC in 1.0% mannitol and PTH(1-34) plus HEC in 1.0% lactose. The lyophilized gels were prepared according to the method of Example 8. Stability was assayed according to by HPLC.
The PTH(1-34) formulations that included HEC in 1.0% mannitol and HEC alone were prepared on a larger scale for use in a long-term stability analysis. In addition to these two lyophilized gel formulations, neat PTH(1-34), i.e., PTH powder, was also filled into vials (purged with nitrogen).
PTH was assayed by HPLC analysis of reconstituted gels/solutions. The samples were assayed before storage, stored at 40° C. and assayed at 1, 3, and 6 months after storage. At each time point, 2 assays were performed on each formulation. […]

[4] abbreviates: 0.5 hr (midpoint), Mean ± SE, n = 3 Donors.
[5] abbreviates: 28.0 hr (midpoint), Mean ± SE, zeros below LLOQ.
Setting [6] is: percent of applied dose, Mean ± SE.

Consider `[Cl-].[K+]` [Potassium Chloride], for which the “effect of additive on hydration time of lyophilized 1.125% HEC 250 HX gel” value (from here on “effect … of lyophilized 1.125% HEC 250 HX gel”) in series [1] is reported as “Potassium Chloride✓”.

Turning to `[Cl-].[Na+]` [Sodium Chloride], the “effect … of lyophilized 1.125% HEC 250 HX gel” value in series [1] is on record as “Sodium Chloride✓”.

As to `CC(O)C(=O)[O-].[Na+]` (centres unmarked) [Sodium Lactate], the “effect … of lyophilized 1.125% HEC 250 HX gel” value in series [1] is “Sodium Lactate✓”.

Consider “Bovine Serum Albumin: [125I] bovine serum albumin in HEC gel, 1.0 mg/mL”, for which the “Mean Flux” value in series [2] (setting [4]) was 4.69 ± 3.93 ng/cm^2/hr; in series [2] (1.5 hr (midpoint), Mean ± SE), 1.04 ± 1.04 ng/cm^2/hr; in series [2] (3.0 hr (midpoint), Mean ± SE), 0.71 ± 0.43 ng/cm^2/hr; in series [2] (6.0 hr (midpoint), Mean ± SE) it was 0.26 ± 0.12 ng/cm^2/hr; in series [2] (10.0 hr (midpoint), Mean ± SE) it was 0.05 ± 0.05 ng/cm^2/hr; in series [2] (18.0 hr (midpoint), Mean ± SE), 0.04 ± 0.04 ng/cm^2/hr. Besides, the “Mean Flux” value turned out to be 0.02 ± 0.02 ng/cm^2/hr in series [2] (setting [5]) and 0.06 ± 0.03 ng/cm^2/hr in series [2] (40.0 hr (midpoint), Mean ± SE). Also, the “Total Absorption” value amounted to 0.010 ± 0.007 µg in series [2] (single application, Mean ± SE) and 0.205 ± 0.148% in series [2] (setting [6]). Besides, the results for the Dermis in series [2] (Mean ± SE) and in series [2] (percent of applied dose) were 0.079 ± 0.024 µg and 1.607 ± 0.487%, respectively. For the same compound, the Epidermis in series [2] (Mean ± SE) amounted to 0.423 ± 0.060 µg; in series [2] (percent of applied dose), 8.610 ± 1.230%. In addition, the results for the “Stratum Corneum” value in series [2] (Mean ± SE) and in series [2] (percent of applied dose) were 0.616 ± 0.157 µg and 12.552 ± 3.202%, respectively. Moreover, the figures for the “Surface Wash” value in series [2] (Mean ± SE) and in series [2] (percent of applied dose) were 3.788 ± 0.357 µg and 77.182 ± 7.273%, respectively.

With “Epidermal Growth Factor: [125I]-Epidermal Growth Factor (murine) in HEC gel, 0.1 mg/mL”, the “Mean Flux” value in series [2] (setting [4]) is reported as 0.40 ± 0.21 ng/cm^2/hr; in series [2] (1.5 hr (midpoint), Mean ± SE), 0.11 ± 0.08 ng/cm^2/hr; in series [2] (3.0 hr (midpoint), Mean ± SE), 0.07 ± 0.06 ng/cm^2/hr; in series [2] (6.0 hr (midpoint), Mean ± SE), 0.04 ± 0.02 ng/cm^2/hr; in series [2] (10.0 hr (midpoint), Mean ± SE) it was 0.09 ± 0.06 ng/cm^2/hr; in series [2] (18.0 hr (midpoint), Mean ± SE), 0.01 ± 0.01 ng/cm^2/hr. Further, the “Mean Flux” value in series [2] (setting [5]) is on record as 0.00 ± 0.00 ng/cm^2/hr; in series [2] (40.0 hr (midpoint), Mean ± SE), 0.01 ± 0.00 ng/cm^2/hr. Moreover, the “Total Absorption” value in series [2] (single application, Mean ± SE) came out at 0.001 ± 0.000 µg; in series [2] (setting [6]), 0.278 ± 0.095%. For the same compound, the Dermis in series [2] (Mean ± SE) came out at 0.008 ± 0.002 µg; in series [2] (percent of applied dose), 1.629 ± 10.311%. Moreover, the values for the Epidermis in series [2] (Mean ± SE) and in series [2] (percent of applied dose) were 0.013 ± 0.001 µg and 2.646 ± 0.242%, respectively. In addition, the “Stratum Corneum” value in series [2] (Mean ± SE) was found to be 0.014 ± 0.001 µg; in series [2] (percent of applied dose), 2.773 ± 0.131%. Further, the “Surface Wash” value in series [2] (Mean ± SE) stood at 0.479 ± 0.005 µg; in series [2] (percent of applied dose), 98.145 ± 1.046%.

Turning to “Somatostatin: [125I]Tyr11-Somatostatin 14 in HEC gel, 1.0 mg/mL (AGCKNFFWKTY(125I)TSC; ends and bridges not checked; UniProt P61278 103-116, looked up, variant F11Y)”, the “Mean Flux” value in series [2] (setting [4]) is recorded as 8.09 ± 3.68 ng/cm^2/hr; in series [2] (1.5 hr (midpoint), Mean ± SE), 2.14 ± 1.89 ng/cm^2/hr; in series [2] (3.0 hr (midpoint), Mean ± SE), 0.54 ± 1.89 ng/cm^2/hr; in series [2] (6.0 hr (midpoint), Mean ± SE) it was 0.22 ± 0.20 ng/cm^2/hr; in series [2] (10.0 hr (midpoint), Mean ± SE), 0.11 ± 0.05 ng/cm^2/hr; in series [2] (18.0 hr (midpoint), Mean ± SE), 0.02 ± 0.02 ng/cm^2/hr. Also, the “Mean Flux” value came to 0.00 ± 0.00 ng/cm^2/hr in series [2] (setting [5]) and 0.01 ± 0.00 ng/cm^2/hr in series [2] (40.0 hr (midpoint), Mean ± SE). The “Total Absorption” value in series [2] (single application, Mean ± SE) was found to be 0.013 ± 0.007 µg; in series [2] (setting [6]), 0.234 ± 0.149%. In addition, the results for the Dermis in series [2] (Mean ± SE) and in series [2] (percent of applied dose) were 0.118 ± 0.008 µg and 2.410 ± 0.169%, respectively. The Epidermis in series [2] (Mean ± SE) amounted to 0.180 ± 0.010 µg; in series [2] (percent of applied dose), 3.697 ± 0.200%. Further, the “Stratum Corneum” value in series [2] (Mean ± SE) turned out to be 0.190 ± 0.009 µg; in series [2] (percent of applied dose), 3.886 ± 0.180%. Further, the “Surface Wash” value came to 4.561 ± 0.118 µg in series [2] (Mean ± SE) and 93.493 ± 2.412% in series [2] (percent of applied dose).

As to “XF15//339006-2: Neat PTH(1-34) from Neo-MPS, lyophilized powder, vials purged with nitrogen”, the “degradation (in words)” value in series [3] is reported as “significant degradation”. For the same compound, in series [3] (six months of storage at 40° C.), the “reduction of PTH(1-34) assay” value was about 25%.
